{
  "source": "the Human Domainome abundance scans (Beltran et al. 2025)",
  "parents": {"B1": {"name": "RNA-binding E3 ubiquitin-protein ligase MEX3C, residues 325 to 391; numbered along this chain, Q5U5Q3 (parent)", "chain": "GQTTVQVRVPYRVVGLVVGPKGATIKRIQQQTHTYIVTPSRDKEPVFEVTGMPENVDRAREEIEMHI"}},
  "note": "± gives the uncertainty stated by the source.",
  "data": [
    {"variants_of": "B1", "experiment": "abundance fitness (aPCA) (normalised: wild type 0, dead -1); higher = more abundant; growth selection in yeast, the domain comes from the species named", "settings": "Homo sapiens", "values": [
      {"variant": "GQTTVQVRVPYRVVGLVVGPKGATIKRIQQQTHTYIVTPSRDKEPVFEVTGMPDNVDRAREEIEMHI", "abundance fitness": "-0.119 ± 0.092"},
      {"variant": "GQTTVQVRVPYRVVGLVVGPKGATIKRIQQQTHTYIVTPSRDKEPVFEVTGMPANVDRAREEIEMHI", "abundance fitness": "-0.079 ± 0.053"},
      {"variant": "GQTTVQVRVPYRVVGLVVGPKGATIKRIQQQTHTYIVTPSRDKEPVFEVTGMPGNVDRAREEIEMHI", "abundance fitness": "-0.179 ± 0.044"},
      {"variant": "GQTTVQVRVPYRVVGLVVGPKGATIKRIQQQTHTYIVTPSRDKEPVFEVTGMPFNVDRAREEIEMHI", "abundance fitness": "-0.815 ± 0.23"},
      {"variant": "GQTTVQVRVPYRVVGLVVGPKGATIKRIQQQTHTYIVTPSRDKEPVFEVTGMPCNVDRAREEIEMHI", "abundance fitness": "-0.482 ± 0.11"},
      {"variant": "GQTTVQVRVPYRVVGLVVGPKGATIKRIQQQTHTYIVTPSRDKEPVFEVTGLPENVDRAREEIEMHI", "abundance fitness": "-0.04 ± 0.055"},
      {"variant": "GQTTVQVRVPYRVVGLVVGPKGATIKRIQQQTHTYIVTPSRDKEPVFEVTGYPENVDRAREEIEMHI", "abundance fitness": "-0.19 ± 0.13"},
      {"variant": "GQTTVQVRVPYRVVGLVVGPKGATIKRIQQQTHTYIVTPSRDKEPVFEVTGWPENVDRAREEIEMHI", "abundance fitness": "-0.369 ± 0.068"},
      {"variant": "GQTTVQVRVPYRVVGLVVGPKGATIKRIQQQTHTYIVTPSRDKEPVFEVTGIPENVDRAREEIEMHI", "abundance fitness": "-0.183 ± 0.17"},
      {"variant": "GQTTVQVRVPYRVVGLVVGPKGATIKRIQQQTHTYIVTPSRDKEPVFEVTGGPENVDRAREEIEMHI", "abundance fitness": "-0.596 ± 0.071"},
      {"variant": "GQTTVQVRVPYRVVGLVVGPKGATIKRIQQQTHTYIVTPSRDKEPVFEVTGKPENVDRAREEIEMHI", "abundance fitness": "-0.075 ± 0.083"},
      {"variant": "GQTTVQVRVPYRVVGLVVGPKGATIKRIQQQTHTYIVTPSRDKEPVFEVTGRPENVDRAREEIEMHI", "abundance fitness": "-0.167 ± 0.044"},
      {"variant": "GQTTVQVRVPYRVVGLVVGPKGATIKRIQQQTHTYIVTPSRDKEPVFEVTGSPENVDRAREEIEMHI", "abundance fitness": "0.006 ± 0.073"},
      {"variant": "GQTTVQVRVPYRVVGLVVGPKGATIKRIQQQTHTYIVTPSRDKEPVFEVTGNPENVDRAREEIEMHI", "abundance fitness": "-0.99 ± 0.49"},
      {"variant": "GQTTVQVRVPYRVVGLVVGPKGATIKRIQQQTHTYIVTPSRDKEPVFEVTGTPENVDRAREEIEMHI", "abundance fitness": "0.185 ± 0.071"},
      {"variant": "GQTTVQVRVPYRVVGLVVGPKGATIKRIQQQTHTYIVTPSRDKEPVFEVTGVPENVDRAREEIEMHI", "abundance fitness": "-0.482 ± 0.082"},
      {"variant": "GQTTVQVRVPYRVVGLVVGPKGATIKRIQQQTHTYIVTPSRDKEPVFEVTGQPENVDRAREEIEMHI", "abundance fitness": "-0.021 ± 0.095"},
      {"variant": "GQTTVQVRVPYRVVGLVVGPKGATIKRIQQQTHTYIVTPSRDKEPVFEVTGCPENVDRAREEIEMHI", "abundance fitness": "-0.194 ± 0.1"},
      {"variant": "GQTTVQVRVPYRVVGLVVGPKGATIKRIQQQTHTYIVTPSRDKEPVFEVTGFPENVDRAREEIEMHI", "abundance fitness": "-0.206 ± 0.096"},
      {"variant": "GQTTVQVRVPYRVVGLVVGPKGATIKRIQQQTHTYIVTPSRDKEPVFEVTGDPENVDRAREEIEMHI", "abundance fitness": "-0.13 ± 0.12"},
      {"variant": "GQTTVQVRVPYRVVGLVVGPKGATIKRIQQQTHTYIVTPSRDKEPVFEVTGAPENVDRAREEIEMHI", "abundance fitness": "-0.141 ± 0.079"},
      {"variant": "GQTTVQVRVPYRVVGLVVGPKGATIKRIQQQTHTYIVTPSRDKEPVFEVTGEPENVDRAREEIEMHI", "abundance fitness": "-0.2 ± 0.095"},
      {"variant": "GQTTVQVRVPYRVVGLVVGPKGATIKRIQQQTHTYIVTPSRDKEPVFEVTGHPENVDRAREEIEMHI", "abundance fitness": "-0.515 ± 0.33"},
      {"variant": "GQTTVQVRVPYRVVGLVVGPKGATIKRIQQQTHTYIVTPSRDKEPVFELTGMPENVDRAREEIEMHI", "abundance fitness": "-0.62 ± 0.085"},
      {"variant": "GQTTVQVRVPYRVVGLVVGPKGATIKRIQQQTHTYIVTPSRDKEPVFEITGMPENVDRAREEIEMHI", "abundance fitness": "0.129 ± 0.068"},
      {"variant": "GQTTVQVRVPYRVVGLVVGPKGATIKRIQQQTHTYIVTPSRDKEPVFESTGMPENVDRAREEIEMHI", "abundance fitness": "-0.843 ± 0.13"},
      {"variant": "GQTTVQVRVPYRVVGLVVGPKGATIKRIQQQTHTYIVTPSRDKEPVFEKTGMPENVDRAREEIEMHI", "abundance fitness": "-0.702 ± 0.18"},
      {"variant": "GQTTVQVRVPYRVVGLVVGPKGATIKRIQQQTHTYIVTPSRDKEPVFERTGMPENVDRAREEIEMHI", "abundance fitness": "-0.788 ± 0.087"},
      {"variant": "GQTTVQVRVPYRVVGLVVGPKGATIKRIQQQTHTYIVTPSRDKEPVFEMTGMPENVDRAREEIEMHI", "abundance fitness": "-0.793 ± 0.21"},
      {"variant": "GQTTVQVRVPYRVVGLVVGPKGATIKRIQQQTHTYIVTPSRDKEPVFEWTGMPENVDRAREEIEMHI", "abundance fitness": "-0.99 ± 0.17"},
      {"variant": "GQTTVQVRVPYRVVGLVVGPKGATIKRIQQQTHTYIVTPSRDKEPVFEQTGMPENVDRAREEIEMHI", "abundance fitness": "-0.901 ± 0.35"},
      {"variant": "GQTTVQVRVPYRVVGLVVGPKGATIKRIQQQTHTYIVTPSRDKEPVFEPTGMPENVDRAREEIEMHI", "abundance fitness": "-1.34 ± 0.48"},
      {"variant": "GQTTVQVRVPYRVVGLVVGPKGATIKRIQQQTHTYIVTPSRDKEPVFEYTGMPENVDRAREEIEMHI", "abundance fitness": "-0.804 ± 0.42"},
      {"variant": "GQTTVQVRVPYRVVGLVVGPKGATIKRIQQQTHTYIVTPSRDKEPVFENTGMPENVDRAREEIEMHI", "abundance fitness": "-0.675 ± 0.43"},
      {"variant": "GQTTVQVRVPYRVVGLVVGPKGATIKRIQQQTHTYIVTPSRDKEPVFETTGMPENVDRAREEIEMHI", "abundance fitness": "-0.626 ± 0.12"},
      {"variant": "GQTTVQVRVPYRVVGLVVGPKGATIKRIQQQTHTYIVTPSRDKEPVFEVTPMPENVDRAREEIEMHI", "abundance fitness": "-0.78 ± 0.23"},
      {"variant": "GQTTVQVRVPYRVVGLVVGPKGATIKRIQQQTHTYIVTPSRDKEPVFEVTEMPENVDRAREEIEMHI", "abundance fitness": "-0.599 ± 0.13"},
      {"variant": "GQTTVQVRVPYRVVGLVVGPKGATIKRIQQQTHTYIVTPSRDKEPVFEVTLMPENVDRAREEIEMHI", "abundance fitness": "-0.794 ± 0.16"},
      {"variant": "GQTTVQVRVPYRVVGLVVGPKGATIKRIQQQTHTYIVTPSRDKEPVFEVTHMPENVDRAREEIEMHI", "abundance fitness": "-0.789 ± 0.32"},
      {"variant": "GQTTVQVRVPYRVVGLVVGPKGATIKRIQQQTHTYIVTPSRDKEPVFEVTTMPENVDRAREEIEMHI", "abundance fitness": "-1.05 ± 0.26"}
    ]}
  ]
}
